The assay addresses human GPC3 on cells (HepG2 cells expressing full length human GPC3; GPC3-transfected HEK293T cells) (human) (UniProt P51654). In words: cell-based or functional assay.

For GC33 CAR (GC33 Benchmark), the IFN-gamma cytokine release (pg/mL), E:T 1:1 came out at 8180 pg/mL; the IFN-gamma cytokine release (pg/mL), E:T 1:3 came to 2760 pg/mL; the IFN-gamma cytokine release (pg/mL), E:T 3:1 came to 15000 pg/mL; the Specific lysis (%) of HepG2 cells, E:T 1:1 was determined as 9.78%. The substance further registered a Specific lysis (%) of HepG2 cells, E:T 1:3 of 4.57% and a Specific lysis (%) of HepG2 cells, E:T 3:1 of 17.2%.
